Assay [1] deals with FUT2-fucosylated E-cadherin (co-expressed with FUT2; with terminal fucosylation) (UniProt P12830). Nature of the assay: atomic force microscopy.
The target in assay [2] is E-cadherin control (expressed without FUT2; without terminal fucosylation) (UniProt P12830). Nature of the assay: atomic force microscopy.

As for “FUT2-fucosylated E-cadherin (co-expressed with FUT2; with terminal fucosylation) (from UniProt P12830 23-882) (natural protein)”, the mean maximum adhesion force in assay [1] was 79.8 nN.

Turning to “E-cadherin control (expressed without FUT2; without terminal fucosylation) (from UniProt P12830 23-882) (natural protein)”, the mean maximum adhesion force in assay [2] worked out at 63.5 nN.
